Data on 14 molecules can be found in patent publication US20250352661A1 (MYTHIC THERAPEUTICS, published 2025).

Sequences and labels used below:
T1: Human LRRC15 Protein, His Tag (Acro Biosystems) (human, UniProt Q8TF66 22-538, limits assumed)
T1 construct: Bought protein with His tag
T1 sequence (looked up): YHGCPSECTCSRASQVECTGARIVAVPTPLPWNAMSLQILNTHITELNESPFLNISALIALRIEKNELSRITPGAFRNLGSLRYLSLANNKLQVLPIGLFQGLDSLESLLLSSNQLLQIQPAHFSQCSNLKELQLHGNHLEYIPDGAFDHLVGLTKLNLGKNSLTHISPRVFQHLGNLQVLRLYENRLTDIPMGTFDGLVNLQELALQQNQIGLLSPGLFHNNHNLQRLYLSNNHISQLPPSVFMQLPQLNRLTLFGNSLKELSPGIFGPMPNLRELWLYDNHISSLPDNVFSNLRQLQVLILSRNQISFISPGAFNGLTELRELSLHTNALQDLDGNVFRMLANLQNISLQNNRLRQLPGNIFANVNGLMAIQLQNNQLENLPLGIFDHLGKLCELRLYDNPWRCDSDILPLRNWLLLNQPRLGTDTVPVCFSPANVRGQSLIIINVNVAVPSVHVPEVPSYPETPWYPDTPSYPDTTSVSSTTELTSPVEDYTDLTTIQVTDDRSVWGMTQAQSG

T2: Human LRRC15 Protein, His Tag (Acro Biosystems) (human, UniProt Q8TF66 22-538, limits assumed)
T2 construct: not shown: His tag
T2 sequence (looked up): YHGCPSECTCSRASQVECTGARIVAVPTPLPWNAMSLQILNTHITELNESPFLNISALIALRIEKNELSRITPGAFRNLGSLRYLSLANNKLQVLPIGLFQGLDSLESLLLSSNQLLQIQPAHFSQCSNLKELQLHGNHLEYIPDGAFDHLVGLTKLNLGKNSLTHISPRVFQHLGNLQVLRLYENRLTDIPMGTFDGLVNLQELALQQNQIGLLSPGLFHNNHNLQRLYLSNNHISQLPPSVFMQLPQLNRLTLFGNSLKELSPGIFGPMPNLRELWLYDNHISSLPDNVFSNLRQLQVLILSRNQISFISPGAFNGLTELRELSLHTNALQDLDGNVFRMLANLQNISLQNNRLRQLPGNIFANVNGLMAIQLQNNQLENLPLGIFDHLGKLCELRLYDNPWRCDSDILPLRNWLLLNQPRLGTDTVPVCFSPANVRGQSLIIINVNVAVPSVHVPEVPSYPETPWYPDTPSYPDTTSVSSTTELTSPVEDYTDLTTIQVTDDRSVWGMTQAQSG

B1: MYT7907 (antibody, V domains shown)
VH: QQQLVESGGGLVKPGASLTLTCKASGFSFSGSYWICWVRQAPGKGLEWIGCINGGSLDITYYASWHKGRFTISKASSTTVTLQKTSLTAADTATYFCASDTSYTAYGNFYFNLWGPGTLVTVSS
VL: AQVLTQTASPVSAAVGGTVTINCQSSQSVLNNNWLAWYQQKPGQPPKLLIYDASSLASGVPSRFKGSGSGTQFTLTISDLESDDAATYYCQGEFSCGSADCNAFGGGTEVVVKG
notes: rabbit 24D9 VH A66H; chimeric, human constant regions
B2: MYT7911 (antibody, V domains shown)
VH: QQQLVESGGGLVKPGASLTLTCKASGFSFSGSYWICWVRQAPGKGLEWIGCINGGSLDITYYASWAKGRFTISKASSTTVTLQKTSLTAADTATYFCAHDTSYTAYGNFYFNLWGPGTLVTVSS
VL: AQVLTQTASPVSAAVGGTVTINCQSSQSVLNNNWLAWYQQKPGQPPKLLIYDASSLASGVPSRFKGSGSGTQFTLTISDLESDDAATYYCQGEFSCGSADCNAFGGGTEVVVKG
notes: rabbit 24D9 VH S99H; chimeric, human constant regions
B3: MYT7908 (antibody, V domains shown)
VH: QQQLVESGGGLVKPGASLTLTCKASGFSFSGSYWICWVRQAPGKGLEWIGCINGGSLDITYYASWAHGRFTISKASSTTVTLQKTSLTAADTATYFCASDTSYTAYGNFYFNLWGPGTLVTVSS
VL: AQVLTQTASPVSAAVGGTVTINCQSSQSVLNNNWLAWYQQKPGQPPKLLIYDASSLASGVPSRFKGSGSGTQFTLTISDLESDDAATYYCQGEFSCGSADCNAFGGGTEVVVKG
notes: rabbit 24D9 VH K67H; chimeric, human constant regions
B4: MYT7910 (antibody, V domains shown)
VH: QQQLVESGGGLVKPGASLTLTCKASGFSFSGSYWICWVRQAPGKGLEWIGCINGGSLDITYYASWAKGRFTISKASSTTVTLQKTSLTAADTATYFCHSDTSYTAYGNFYFNLWGPGTLVTVSS
VL: AQVLTQTASPVSAAVGGTVTINCQSSQSVLNNNWLAWYQQKPGQPPKLLIYDASSLASGVPSRFKGSGSGTQFTLTISDLESDDAATYYCQGEFSCGSADCNAFGGGTEVVVKG
notes: rabbit 24D9 VH A98H; chimeric, human constant regions
B5: MYT7909 (antibody, V domains shown)
VH: QQQLVESGGGLVKPGASLTLTCKASGFSFSGSYWICWVRQAPGKGLEWIGCINGGSLDITYYASWAKHRFTISKASSTTVTLQKTSLTAADTATYFCASDTSYTAYGNFYFNLWGPGTLVTVSS
VL: AQVLTQTASPVSAAVGGTVTINCQSSQSVLNNNWLAWYQQKPGQPPKLLIYDASSLASGVPSRFKGSGSGTQFTLTISDLESDDAATYYCQGEFSCGSADCNAFGGGTEVVVKG
notes: rabbit 24D9 VH G68H; chimeric, human constant regions
B6: MYT7926 (antibody, V domains shown)
VH: QQQLVESGGGLVKPGASLTLTCKASGFSFSGSYWICWVRQAPGKGLEWIGCINGGSLDITYYASWAKGRFTISKASSTTVTLQKTSLTAADTATYFCASDTSYTAYGNFYFNLWGPGTLVTVSS
VL: AQVLTQTASPVSAAVGGTVTINCHSSQSVLNNNWLAWYQQKPGQPPKLLIYDASSLASGVPSRFKGSGSGTQFTLTISDLESDDAATYYCQGEFSCGSADCNAFGGGTEVVVKG
notes: tested as culture supernatant; also called 24D9 VL Q24H
B7: MYT7927 (antibody, V domains shown)
VH: QQQLVESGGGLVKPGASLTLTCKASGFSFSGSYWICWVRQAPGKGLEWIGCINGGSLDITYYASWAKGRFTISKASSTTVTLQKTSLTAADTATYFCASDTSYTAYGNFYFNLWGPGTLVTVSS
VL: AQVLTQTASPVSAAVGGTVTINCQHSQSVLNNNWLAWYQQKPGQPPKLLIYDASSLASGVPSRFKGSGSGTQFTLTISDLESDDAATYYCQGEFSCGSADCNAFGGGTEVVVKG
notes: tested as culture supernatant; also called 24D9 VL S25H
B8: MYT7929 (antibody, V domains shown)
VH: QQQLVESGGGLVKPGASLTLTCKASGFSFSGSYWICWVRQAPGKGLEWIGCINGGSLDITYYASWAKGRFTISKASSTTVTLQKTSLTAADTATYFCASDTSYTAYGNFYFNLWGPGTLVTVSS
VL: AQVLTQTASPVSAAVGGTVTINCQSSHSVLNNNWLAWYQQKPGQPPKLLIYDASSLASGVPSRFKGSGSGTQFTLTISDLESDDAATYYCQGEFSCGSADCNAFGGGTEVVVKG
notes: tested as culture supernatant; also called 24D9 VL Q27H
B9: MYT7931 (antibody, V domains shown)
VH: QQQLVESGGGLVKPGASLTLTCKASGFSFSGSYWICWVRQAPGKGLEWIGCINGGSLDITYYASWAKGRFTISKASSTTVTLQKTSLTAADTATYFCASDTSYTAYGNFYFNLWGPGTLVTVSS
VL: AQVLTQTASPVSAAVGGTVTINCQSSQSHLNNNWLAWYQQKPGQPPKLLIYDASSLASGVPSRFKGSGSGTQFTLTISDLESDDAATYYCQGEFSCGSADCNAFGGGTEVVVKG
notes: tested as culture supernatant; also called 24D9 VL V29H
B10: MYT7930 (antibody, V domains shown)
VH: QQQLVESGGGLVKPGASLTLTCKASGFSFSGSYWICWVRQAPGKGLEWIGCINGGSLDITYYASWAKGRFTISKASSTTVTLQKTSLTAADTATYFCASDTSYTAYGNFYFNLWGPGTLVTVSS
VL: AQVLTQTASPVSAAVGGTVTINCQSSQHVLNNNWLAWYQQKPGQPPKLLIYDASSLASGVPSRFKGSGSGTQFTLTISDLESDDAATYYCQGEFSCGSADCNAFGGGTEVVVKG
notes: tested as culture supernatant; also called 24D9 VL S28H
B11: MYT7928 (antibody, V domains shown)
VH: QQQLVESGGGLVKPGASLTLTCKASGFSFSGSYWICWVRQAPGKGLEWIGCINGGSLDITYYASWAKGRFTISKASSTTVTLQKTSLTAADTATYFCASDTSYTAYGNFYFNLWGPGTLVTVSS
VL: AQVLTQTASPVSAAVGGTVTINCQSHQSVLNNNWLAWYQQKPGQPPKLLIYDASSLASGVPSRFKGSGSGTQFTLTISDLESDDAATYYCQGEFSCGSADCNAFGGGTEVVVKG
notes: tested as culture supernatant; also called 24D9 VL S26H
B12: MYT7934 (antibody, V domains shown)
VH: QQQLVESGGGLVKPGASLTLTCKASGFSFSGSYWICWVRQAPGKGLEWIGCINGGSLDITYYASWAKGRFTISKASSTTVTLQKTSLTAADTATYFCASDTSYTAYGNFYFNLWGPGTLVTVSS
VL: AQVLTQTASPVSAAVGGTVTINCQSSQSVLNHNWLAWYQQKPGQPPKLLIYDASSLASGVPSRFKGSGSGTQFTLTISDLESDDAATYYCQGEFSCGSADCNAFGGGTEVVVKG
notes: tested as culture supernatant; also called 24D9 VL N32H
B13: MYT7933 (antibody, V domains shown)
VH: QQQLVESGGGLVKPGASLTLTCKASGFSFSGSYWICWVRQAPGKGLEWIGCINGGSLDITYYASWAKGRFTISKASSTTVTLQKTSLTAADTATYFCASDTSYTAYGNFYFNLWGPGTLVTVSS
VL: AQVLTQTASPVSAAVGGTVTINCQSSQSVLHNNWLAWYQQKPGQPPKLLIYDASSLASGVPSRFKGSGSGTQFTLTISDLESDDAATYYCQGEFSCGSADCNAFGGGTEVVVKG
notes: also called 24D9 VL N31H
B14: MYT7932 (antibody, V domains shown)
VH: QQQLVESGGGLVKPGASLTLTCKASGFSFSGSYWICWVRQAPGKGLEWIGCINGGSLDITYYASWAKGRFTISKASSTTVTLQKTSLTAADTATYFCASDTSYTAYGNFYFNLWGPGTLVTVSS
VL: AQVLTQTASPVSAAVGGTVTINCQSSQSVHNNNWLAWYQQKPGQPPKLLIYDASSLASGVPSRFKGSGSGTQFTLTISDLESDDAATYYCQGEFSCGSADCNAFGGGTEVVVKG
notes: tested as culture supernatant; also called 24D9 VL L30H

In the first experiment the target is T1, Human LRRC15 Protein, His Tag (Acro …). As to the kind of experiment: BLI; dissociation pH 7.4 black, pH 5.4 grey [1/2); D00013 FIG. 2B (1/2]. A general note: Biolayer interferometry detects binding as a change in optical thickness at a sensor tip.
Regarding B1, the binding result is given as “binds”.

Consider B2, for which the binding result is “no binding (tested: 50 nM LRRC15)”.

Regarding B3, the binding result is recorded as “binds”.

For the molecule B4, the binding result is “binds”.

With B5, the binding result is given as “binds”.

The target in the next experiment is T2, Human LRRC15 Protein, His Tag (Acro …). As to the kind of experiment: BLI; dissociation pH 7.4 black, pH 5.4 grey [D00016 FIG. 3B].
With B6, the binding result is “binds”.

Consider B7, for which the binding result is “binds”.

For B8, the binding result is “binds”.

As for B9, the binding result is recorded as “no binding (tested: 50 nM LRRC15)”.

B10: the binding result was “binds”.

Consider B11, for which the binding result is “binds”.

With B12, the binding result is on record as “binds”.

Consider B13, for which the binding result is listed as “binds”.

Regarding B14, the binding result was “no binding (tested: 50 nM LRRC15)”.
